According to article PMC8904574, “Bacterial F-type ATP synthases follow a well-choreographed assembly pathway” (Nature Communications, 2022):

B1: central stalk γε complex of the A. woodii F1 ATP synthase (atpG and atpC expressed bicistronically, His6 tag on ε) (complex, Acetobacterium woodii)
chain 1: MAENVQDIKRRIKSVNSTMQITHAMELVASAKLRKSRELAEGRRPYFEAMIESIGRIVEKSGNARNIFMDQREVKKTAYIIITGDKGLAGGYNVNVAKLVEEHITDKENAVLFTVGSRGRDHFRNREYHIQGEYLGISERPNFFNAKEVTAIVMEGFKNGEYDEVYIAYTKFVSTITQHAQMMKLLPLSAEELITSGKVKTTEETKEEKSKMSDRELTIMTYEPEPEELLKYLIPNFVSSTVYGSMIESAASEQGARRTAMESATTNANEMIDGLTLQYNRVRQAAITQEISEIVGGAEALN
chain 2: MAETFRLKIIAPTGVFFDDDIERVVIRGIEGELAILAEHTPLTTNVAIGTFNIIFADKKKKNGTLLGGIATINPRETIILTDAAEWPEEIDIKRAQEAKERALKRIHDDKFDTARARAALERAIARINSKENV
notes: ATP synthase subunit gamma (gene atpG) of the Na+-F1FO-ATP synthase, Acetobacterium woodii; ATP synthase subunit epsilon (gene atpC) of the Na+-F1FO-ATP synthase, Acetobacterium woodii; source: E. coli BL21gold(DE3), co-expressed, purified (Ni-NTA, SEC); copies: 1 + 1
B2: in vitro assembled αβ heterodimer (StrepI-α with His6-β, in ATP/Mg2+ or other nucleotide/Mg2+) (complex, Acetobacterium woodii)
chain 1: MNLRPEEISQIIKNEIERYEDKLEVVDVGTVIQVGDGVARVHGLENAMAGELLAFPNEVYGMVLNLEEDNVGCVLLGYDDDIVEGDIVRCTGRIVEVPVGEAMIGRVVNALGFPVDGKGPIVTDHRRPVEVKAAGVIERESVNQPIQTGYKAIDSMIPIGRGQRELIIGDRQTGKTALAIDTIINQKGEDVICIYVAIGQKDSTVAQIVGQLEENNAMDYTIIVSAGAAQLAPLQYIAPYSGVTMAEYFMNEQQKDVLIIYDDLSKHAVAYRAMSLILRRPPGREAYPGDVFYLHSRLLERAAKLKAGGSITALPIIETQAGDVSAYIPTNVISITDGQIFLEAELFRSGIRPAVNPGISVSRVGGSAQIKSMKKVAGPLRIEYAQYRELASFAQFGSDLDDETKAQLAKGERIVEILKQDQYDPMNVEDQVLILYAATNGFLLDIEVKDIREFEKGLIKFAQKKYPEIMTKVKGKDGLSDEVVAAFAECIEAYKKVFSKSV
chain 2: MAQNIGKVVQVIGPVVDVKFQKDKLPKLNNAVNIELNGHTLVIEVAQQLGDDIVRCIAMDSTDGLMRNQEAVDTGSAIQVPVGKATLGRMFNVLGEPIDGKPFDTKDVVMHPIHRHPPSFEEQQTQPEMFETGIKVVDLICPYVRGGKIGLFGGAGVGKTVLIQELINNIATQHGGLSVFAGVGERTREGNDLYYEMMESGVINKTALCFGQMNEPPGARMRIALAGLTMAEYFRDDEGQDVLLFIDNIFRFTQAGSEVSALLGRMPSAVGYQPTLATEMGALQERITSTSKGSITSVQAVYVPADDLTDPAPATTFAHLDATTVLSRAITEKGIYPAVDPLDSTSRILDPKIVGQEHYETAREVQEILQRYKELQDIIAILGMDELSDADKITVSRARKVERFLSQPFNVAEQFTGTAGVYVTIGDTIKGFKEILEGQHDDLPESAFLLVGTIEDAVVKAKKIKG
notes: ATP synthase subunit alpha (gene atpA), Acetobacterium woodii; as m1; ATP synthase subunit beta (gene atpD), Acetobacterium woodii; as m2; also called in vitro αβ; source: assembled in vitro from subunits purified from E. coli BL21gold(DE3); not shown: StrepI, N-terminal, kept; His6, N-terminal, kept; copies: 1 + 1
B3: α-subunit of the F1 part of the Na+-F1FO-ATP synthase of Acetobacterium woodii, N-terminal StrepI tag (natural protein, UniProt P50000 1-502, looked up)
chain: B2 chain 1
notes: ATP synthase subunit alpha (gene atpA) of the Na+-F1FO-ATP synthase, Acetobacterium woodii; also called α[WT]; StrepI-α; source: E. coli BL21gold(DE3), purified (Strep-Tactin, SEC); not shown: StrepI, N-terminal, kept
B4: β-subunit of the F1 part of the Na+-F1FO-ATP synthase of Acetobacterium woodii, N-terminal His6 tag (natural protein, UniProt P50002 1-466, looked up)
chain: B2 chain 2
notes: ATP synthase subunit beta (gene atpD) of the Na+-F1FO-ATP synthase, Acetobacterium woodii; also called β[WT]; His6-β; source: E. coli BL21gold(DE3), purified (Ni-NTA, SEC); also co-expressed with other F1 subunits in E. coli as the tagged subunit of the in cellula complexes; not shown: His6, N-terminal, kept

Legend:
Settings in all cases: both partners purified
[1] = target: T1, α[R363Q]β[WT] heterodimer assembled in vitro in ATP/Mg2+ (Acetobacterium woodii, UniProt P50000 1-502; P50002 1-466, R363Q); test: native MS; LILBID-MS; purified subunits incubated in 50 mM KPi, 200 mM NaCl, 2 mM ATP, 2 mM MgCl2, 10% glycerol, pH 7.4, 4 °C, 1 h; exchanged into 100 mM ammonium acetate, 2 mM ATP, 2 mM MgCl2, pH 7.4
T1 construct: ATP synthase subunit alpha (gene atpA), Acetobacterium woodii; as m9; ATP synthase subunit beta (gene atpD), Acetobacterium woodii; as m2; source: assembled in vitro from subunits purified from E. coli BL21gold(DE3); not shown: His6, N-terminal, kept; copies: 1 + 1

[2] = target: B2; test: as above
[3] = target: B1; test: as above
[4] = target: T2, α-subunit mutant α[R363K], A. woodii (Acetobacterium woodii, UniProt P50000 1-502, R363K); test: SEC; HPLC on a bioZen 1.8 µm SEC-3 column, 60 µg protein, elution buffer B (50 mM KPi, 200 mM NaCl, 2 mM ATP, 2 mM MgCl2, pH 7.4), 4 °C
T2 construct: ATP synthase subunit alpha (gene atpA), Acetobacterium woodii, point mutant; source: E. coli BL21gold(DE3), purified (Strep-Tactin, SEC)

[5] = target: T3, α-subunit mutant α[R363Q], A. woodii (Acetobacterium woodii, UniProt P50000 1-502, R363Q); test: as above
T3 construct: ATP synthase subunit alpha (gene atpA), Acetobacterium woodii, point mutant; source: E. coli BL21gold(DE3), purified (Strep-Tactin, SEC)

[6] = target: B3; test: native MS; LILBID-MS; purified subunits incubated in 50 mM KPi, 200 mM NaCl, 2 mM ATP, 2 mM MgCl2, 10% glycerol, pH 7.4, 4 °C, 1 h; exchanged into 100 mM ammonium acetate, 2 mM ATP, 2 mM MgCl2, pH 7.4

## B1
[1]
  binding result: binds
[2]
  binding result: binds

## B2
[3]
  stoichiometry N: 3

## B3
[3]
  stoichiometry N: ≤ 1

## B4
[4]
  binding result: binds
[5]
  binding result: binds
[6]
  binding result: binds
[3]
  stoichiometry N: ≤ 1
